Assay results published in US20030104423A1 (WISCONSIN ALUMNI RESEARCH FOUNDATION, published 2003).
Where a chain is given by its changes, count along the chain named. Names and notes keep the numbering of the source.

B1: β′1-319 wild type, untagged (pTA620) (enzyme)
chain: MKDLLKFLKAQTKTEEFDAIKIALASPDMIRSWSFGEVKKPETINYRTFKPERDGLFCARIFGPVKDYECLCGKYKRLKHRGVICEKCGVEVTQTKVRRERMGHIELASPTAHIWFLKSLPSRIGLLLDMPLRDIERVLYFESYVVIEGGMTNLERQQILTEEQYLDALEEFGDEFDAKMGAEAIQALLKSMDLEQECEQLREELNETNSETKRKKLTKRIKLLEAFVQSGNKPEWMILTVLPVLPPDLRPLVPLDGGRFATSDLNDLYRRVINRNNRLKRLLDLAAPDIIVRNEKRMLQEAVDALLDNGRRGRAITGS
B2: β′ mutant N274P (enzyme)
chain: B1 chain with N274P
B3: β′1-319 N309D (pTA619) (enzyme)
chain: B1 chain with N309D
B4: β′ mutant L299D (enzyme)
chain: B1 chain with L299D
B5: β′ mutant E301P (enzyme)
chain: B1 chain with E301P
B6: β′1-319 Q300E (pTA617) (enzyme)
chain: B1 chain with Q300E
B7: β′1-319 Y269A (pTA611) (enzyme)
chain: B1 chain with Y269A
B8: β′1-319 K280E (pTA613) (enzyme)
chain: B1 chain with K280E
B9: β′1-319 N266D (pTA610) (enzyme)
chain: B1 chain with N266D
B10: β′ mutant V272D (enzyme)
chain: B1 chain with V272D
B11: N-terminally His6-tagged β′ 1-309, hydroxylamine cleavage fragment (from pTA499) (enzyme)
chain: HHHHHHMKDLLKFLKAQTKTEEFDAIKIALASPDMIRSWSFGEVKKPETINYRTFKPERDGLFCARIFGPVKDYECLCGKYKRLKHRGVICEKCGVEVTQTKVRRERMGHIELASPTAHIWFLKSLPSRIGLLLDMPLRDIERVLYFESYVVIEGGMTNLERQQILTEEQYLDALEEFGDEFDAKMGAEAIQALLKSMDLEQECEQLREELNETNSETKRKKLTKRIKLLEAFVQSGNKPEWMILTVLPVLPPDLRPLVPLDGGRFATSDLNDLYRRVINRNNRLKRLLDLAAPDIIVRNEKRMLQEAVDALLDN
B12: β′1-309, untagged (pTA518) (enzyme)
chain: MKDLLKFLKAQTKTEEFDAIKIALASPDMIRSWSFGEVKKPETINYRTFKPERDGLFCARIFGPVKDYECLCGKYKRLKHRGVICEKCGVEVTQTKVRRERMGHIELASPTAHIWFLKSLPSRIGLLLDMPLRDIERVLYFESYVVIEGGMTNLERQQILTEEQYLDALEEFGDEFDAKMGAEAIQALLKSMDLEQECEQLREELNETNSETKRKKLTKRIKLLEAFVQSGNKPEWMILTVLPVLPPDLRPLVPLDGGRFATSDLNDLYRRVINRNNRLKRLLDLAAPDIIVRNEKRMLQEAVDALLDN
B13: His6-tagged β′178-309 (pTA537) (enzyme)
chain: AKMGAEAIQALLKSMDLEQECEQLREELNETNSETKRKKLTKRIKLLEAFVQSGNKPEWMILTVLPVLPPDLRPLVPLDGGRFATSDLNDLYRRVINRNNRLKRLLDLAAPDIIVRNEKRMLQEAVDALLDN
B14: His6-tagged β′200-309 (pTA538) (enzyme)
chain: QLREELNETNSETKRKKLTKRIKLLEAFVQSGNKPEWMILTVLPVLPPDLRPLVPLDGGRFATSDLNDLYRRVINRNNRLKRLLDLAAPDIIVRNEKRMLQEAVDALLDN
B15: β′100-309, untagged (pTA530) (enzyme)
chain: ERMGHIELASPTAHIWFLKSLPSRIGLLLDMPLRDIERVLYFESYVVIEGGMTNLERQQILTEEQYLDALEEFGDEFDAKMGAEAIQALLKSMDLEQECEQLREELNETNSETKRKKLTKRIKLLEAFVQSGNKPEWMILTVLPVLPPDLRPLVPLDGGRFATSDLNDLYRRVINRNNRLKRLLDLAAPDIIVRNEKRMLQEAVDALLDN
B16: His6-tagged β′100-309 (pTA533) (enzyme)
chain: B15 chain
B17: His6-tagged β′33-309 (pTA531) (enzyme)
chain: WSFGEVKKPETINYRTFKPERDGLFCARIFGPVKDYECLCGKYKRLKHRGVICEKCGVEVTQTKVRRERMGHIELASPTAHIWFLKSLPSRIGLLLDMPLRDIERVLYFESYVVIEGGMTNLERQQILTEEQYLDALEEFGDEFDAKMGAEAIQALLKSMDLEQECEQLREELNETNSETKRKKLTKRIKLLEAFVQSGNKPEWMILTVLPVLPPDLRPLVPLDGGRFATSDLNDLYRRVINRNNRLKRLLDLAAPDIIVRNEKRMLQEAVDALLDN
B18: His6-HMK-β′1-300 (pTA524) (enzyme)
chain: MKDLLKFLKAQTKTEEFDAIKIALASPDMIRSWSFGEVKKPETINYRTFKPERDGLFCARIFGPVKDYECLCGKYKRLKHRGVICEKCGVEVTQTKVRRERMGHIELASPTAHIWFLKSLPSRIGLLLDMPLRDIERVLYFESYVVIEGGMTNLERQQILTEEQYLDALEEFGDEFDAKMGAEAIQALLKSMDLEQECEQLREELNETNSETKRKKLTKRIKLLEAFVQSGNKPEWMILTVLPVLPPDLRPLVPLDGGRFATSDLNDLYRRVINRNNRLKRLLDLAAPDIIVRNEKRMLQ
notes: range 1-300
B19: His6-HMK-β′1-280 (pTA523) (enzyme)
chain: MKDLLKFLKAQTKTEEFDAIKIALASPDMIRSWSFGEVKKPETINYRTFKPERDGLFCARIFGPVKDYECLCGKYKRLKHRGVICEKCGVEVTQTKVRRERMGHIELASPTAHIWFLKSLPSRIGLLLDMPLRDIERVLYFESYVVIEGGMTNLERQQILTEEQYLDALEEFGDEFDAKMGAEAIQALLKSMDLEQECEQLREELNETNSETKRKKLTKRIKLLEAFVQSGNKPEWMILTVLPVLPPDLRPLVPLDGGRFATSDLNDLYRRVINRNNRLK
notes: range 1-280
B20: β′260-309 with C-terminal His6 (pTA546) (enzyme)
chain: FATSDLNDLYRRVINRNNRLKRLLDLAAPDIIVRNEKRMLQEAVDALLDNHHHHHH
B21: HMK-His6-β′(100-309), IC5-labeled (pTA133) (enzyme)
chain: MARRASVHHHHHHMERMGHIELASPTAHIWFLKSLPSRIGLLLDMPLRDIERVLYFESYVVIEGGMTNLERQQILTEEQYLDALEEFGDEFDAKMGAEAIQALLKSMDLEQECEQLREELNETNSETKRKKLTKRIKLLEAFVQSGNKPEWMILTVLPVLPPDLRPLVPLDGGRFATSDLNDLYRRVINRNNRLKRLLDLAAPDIIVRNEKRMLQEAVDALLDN
notes: also called labeled β′-fragment; IC5-labeled β′-fragment
B22: HMK-His6-β′(100-309), unlabeled (pTA133) (enzyme)
chain: B21 chain
notes: also called unlabeled β′-fragment
B23: β′60-309, untagged (pTA528) (enzyme)
chain: RIFGPVKDYECLCGKYKRLKHRGVICEKCGVEVTQTKVRRERMGHIELASPTAHIWFLKSLPSRIGLLLDMPLRDIERVLYFESYVVIEGGMTNLERQQILTEEQYLDALEEFGDEFDAKMGAEAIQALLKSMDLEQECEQLREELNETNSETKRKKLTKRIKLLEAFVQSGNKPEWMILTVLPVLPPDLRPLVPLDGGRFATSDLNDLYRRVINRNNRLKRLLDLAAPDIIVRNEKRMLQEAVDALLDN
B24: His6-tagged β′60-309 (pTA532) (enzyme)
chain: B23 chain

Key:
[1] = target: T1, HMK-His6-σ70, 32P-labeled (pHMK-His6-σ70) (Escherichia coli, UniProt P00579 1-613); assay: far-Western binding, 32P-σ70 probe; grade
T1 construct: range 1-613; also called ^32P-labeled ?^70; HMK-?^70

[2] = target: T1, HMK-His6-σ70, 32P-labeled …; assay: far-Western of β′1-319 in cell extract, normalized to Western
[3] = target: T1, HMK-His6-σ70, 32P-labeled …; assay: ordered fragment ladder far-Western, 32P-σ70 probe
[4] = target: T1, HMK-His6-σ70, 32P-labeled …; assay: far-Western of whole cell lysate, 32P-σ70 probe
[5] = target: T2, σ70, native, untagged (pLN12) (Escherichia coli, UniProt P00579 1-613); assay: mixed with σ70 and passed over Ni-NTA (control)
T2 construct: range 1-613; also called native ?^70

[6] = target: T2, σ70, native, untagged (pLN12); assay: Ni-NTA co-immobilization, SDS-PAGE
[7] = target: T3, σ70 (C132S, C291S, C295S, S442C), labeled with Eu-DTPA-AMCA (pSigma70(442C)) (Escherichia coli, UniProt P00579 1-613); assay: electrophoretic mobility shift (EMS) assay, native gel
T3 construct: also called labeled ?^70

[8] = target: T3, σ70 (C132S, C291S, C295S, S442C), …; assay: EMS assay, competition with labeled β′-fragment

Row | Binder | binding result [1] | binding result [6] | further results
1 | B1 | binds | – | –
2 | B2 | no binding | – | –
3 | B3 | binds | – | –
4 | B4 | no binding | – | –
5 | B5 | no binding | – | –
6 | B6 | – | – | relative binding against wild type β′1-319 [2]: > 7 fold
7 | B7 | binds | – | –
8 | B8 | binds | – | –
9 | B9 | binds | – | –
10 | B10 | no binding | – | –
11 | B11 | – | – | binding result [3]: binds
12 | B12 | – | – | binding result [4]: binds; binding result [5]: binds
13 | B13 | – | binds | –
14 | B14 | – | binds | –
15 | B15 | – | – | binding result [4]: binds
16 | B16 | – | binds | –
17 | B17 | – | binds | –
18 | B18 | – | no binding | –
19 | B19 | – | no binding | –
20 | B20 | – | binds | –
21 | B21 | – | – | binding result [7]: binds
22 | B22 | – | – | binding result [8]: binds
23 | B23 | – | – | binding result [4]: binds
24 | B24 | – | binds | –
